Target: the molecule itself
Assay: SEC; purified plakophilin-3 on Superdex S-200 10/300; methods give 20 mM Tris pH 7.5, 150 mM NaCl, 1 mM dithiothreitol; dimer and monomer peaks pooled and reloaded; more dimer at higher concentration and lower reducing conditions, mainly monomer with dithiothreitol or TCEP

B1: plakophilin-3 (residues 305-797) (domain or fragment, human, UniProt Q9Y446 305-797, looked up)
chain: SHRTLQRLSSGFDDIDLPSAVKYLMASDPNLQVLGAAYIQHKCYSDAAAKKQARSLQAVPRLVKLFNHANQEVQRHATGAMRNLIYDNADNKLALVEENGIFELLRTLREQDDELRKNVTGILWNLSSSDHLKDRLARDTLEQLTDLVLSPLSGAGGPPLIQQNASEAEIFYNATGFLRNLSSASQATRQKMRECHGLVDALVTSINHALDAGKCEDKSVENAVCVLRNLSYRLYDEMPPSALQRLEGRGRRDLAGAPPGEVVGCFTPQSRRLRELPLAADALTFAEVSKDPKGLEWLWSPQIVGLYNRLLQRCELNRHTTEAAAGALQNITAGDRRWAGVLSRLALEQERILNPLLDRVRTADHHQLRSLTGLIRNLSRNARNKDEMSTKVVSHLIEKLPGSVGEKSPPAEVLVNIIAVLNNLVVASPIAARDLLYFDGLRKLIFIKKKRDSPDSEKSSRAASSLLANLWQYNKLHRDFRAKGYRKEDFLGP
notes: pET28 construct with eight histidines followed by an HRV-3C site at the amino terminus; no cleavage step is described; The protein is found as monomer and as homodimer; also called armadillo repeat motif domain of plakophilin-3; Pkp3; source: E. coli BL21(DE3) Rosetta2, purified (Ni-nitriloacetic acid column, Superdex S-200 size exclusion)
stoichiometry N: 2
